Data on 47 sequences can be found in the NTF2 design screens of Basanta et al. (2020).

This data set is described as follows: protease stability score; higher = more stable; yeast display proteolysis, trypsin and chymotrypsin.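 Further: relative to predicted unfolded state with 0 unfolded-like and 1 meaning tenfold more protease.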
For the sequence “DERTLEQLLQDFINNMQTGDHQSLKDLLDENARVNIGDKTLSGRERVTTALKRLMRRVDHIQVDHYEVTNGEMNIDMQLEVNGVRVKVEVIIEVHNGKAKFIEFRVRNEEQWERVEG”, the protease stability score was found to be 2.19.

With “DESAVNNLVRLAKAWLRGDPKKIEHLVDKDAKAQIGDKTLHGREDLKDHADELRKDMTVDVKSVTNNNQNGQAVVDVKFEADRNGRPETHTLDAKATAHNGDIVDVKIHQDG”, the protease stability score is -0.049. To “DESDKEREDVFRSWIESMRTGDEKNMRELMDPHARTEIGDKEYHGREVVEYIRREWRITHVELHRIEKQGDKIISHGHDEINIDGRKLYIHSRIIARKVNGVWIIESLEFH” belongs 1.29; to “DESDKYVHHVAELMIEWFLTGDEELFEEYADPNMRVIFENHENHGREEVMKHMHDWWRKVKNVRVEYRIRDVQFQGDKARIEGELIIRIDGRNVIREVEYHILVIDGVLHSYKLVYK”, 1.47; to “DESDTLAKEATREFEEFMRTGDEHSLLKLADPHVRLFWNGKQLVGREDYSKHIKFLLEHFGFDNIESRTEHIDWQGDKLRLHLRMHVNGKTITVEIHSEKINGRWMNREIHFT”, 1.44. As to “DESEDAVRKSMELWEESMRTGNEERLIELVDPNVRLDINGQIYHGWSQFVEVIFNEFRHARLESIEIHEVRLQGDKIRSRTTLVIRINGRLKHLDVRFIVKKVDGRWQIHSEERE”, the protease stability score was 1.31.

“DESEEDVEYFVKILDRAWATGDEDTLRRLLDPHYRVHVDGKDIIGREEVVRLFKEMGWELRFHRDHIHVQGDKMFIHGTLRLIYNGRIEEREIHLDVNKINGRWLNERVEIR” showed a protease stability score of 1.81. Sequence “DESEEEMKKAFKDLVDSLLTGDEHLLRTFADPNMRLRIGDKTFHGRETYSEIFLKEWKKLGIKHYQVTIHHLEVQGDKIHVDTRVNVHIGDWTIHRETRLHITKVNGQWILRQEDVD” had a protease stability score of 0.416. “DESEEESHKVAELVIKIWETGDEHIWENLADPHTRYEIDGKIIHGREIASHIMRIFLERVKNVTFRIKDVKRHVYNGVIEVRNETELNIGDKRIDTHIMVILRKVNGRWYMTEVRFQID” yielded a protease stability score of 1.53. Turning to “DESEEHSEIMLRILHHALRTGDEEEITRLLDPHVRVIIGDKHYHGWEDYVKTVFTTAKEMRMHIHITDSKVQGNYVHLDTRLLIHYNGKTFTYNTRLVTVKVNGQWRLHSETSH”, the protease stability score was 1. In the case of “DESEEKAREFLEILVRDVRTGDEESAVRLLDPNVRIEQGDKELHGWEVYIHWAKHIRMRSVHLRTMEVQGDKVILRGDERQEIDGVESVRDVIVYVRKINGRWVMTSIEVL”, the protease stability score amounted to 2.15. In the case of “DESEELAERLLEEMEELILTGDWEKFVRMVDPHARFVIGEFDNHGRETFVKELLELRVHIRDSRIREIDVQGEKIRMHTQIDFEIDVDGVRHRREHSFHFIVLKIDGRWSVQQLRIK” it was 0.64; in that of “DESEELAKQFMEVLARSMRTGDEEKIVKMLDPNVKVVINGVELHGREALEHILREIRVEDVWLTHIFVQGEKVRIDYREKGEFNGRLDTLTVHIIVKKIDGKWKITEFRIH”, 1.89. The sequence “DESEELSRIASHLFLRMMHTGNEEEISKLADPNTRLDVNGKHFHGMELIIHFLHELRRKLGVKYIRLKSVHITIVNGKVDLELEGDLLQGDFEIPSHIRNIALKVDGKWFIHRQEFRFE” had a protease stability score of 1.32. Sequence “DESEELTEELSRLWLHWYLTGDEEIFKHNFDPNARQDYNGKEIHGRDRVVRFLEELWRMLGAKHFHIRHEEYYGNKVRIEGHITVGDKHRETEIQINIINGKIKEIRIEVK” had a protease stability score of 2.12.

“DESEELTKEAKRVYYETMRTGDEHNLKRLMDPNTRMDFNGVEFHGREAVKILVEQADHLEDVRIKRERVDEHEVELHGEFHGKVNGRHTTTHVILFWLKYNGRWRVKELQVR” had a protease stability score of 0.84. For “DESEELVRRFLEERIQDLRTGNWERIHENLDPNVRLIVNGRIFHGREALHVFRRRVDHNEDEKIRDVRIQGDKAEVDMEVLGVVNGVRTNFEAKLIMTKFDGKWSVKEVQID”, the protease stability score turned out to be 1.75.

As to “DESEERSRHATELFIRAIHTGDEHTLMNLLDPHVRTHYGDKEVHGRENVVKVMLELLHKLGADHVRWEYHDFKDINGRLHMDWRLHVVVGDKELTLQTHIITEKINGRWHSKYMEIR”, the protease stability score amounted to 0.183. Sequence “DESEESALKFLKEWREHFRTGNEDHMEELADPNVRVVIGDKEYHGWEETSRLISEKLRHMRVKFVLHTIRVVDGRIHVKSSLIIEVGDKELRVETSYHFEKVNGRWRLRVIHQE” showed a protease stability score of 1.27. To “DESEESIRKVVKLLERAHRTGDEHEMKHLLDPNAKLIINGVELHGMELFEKLFKFERHHWRLHSMHVRHVDTQGDKANSDGEEDREFDGRREEVKTIIVMVKIDGRWHVKHIIFL” belongs 1.08. As to “DESEESMRHALEEIIESMVTGDEDRLRELADPNVRSKVNGRDIHGWKVVSKLVKELRIRDVKVEDKDREVQGEWMYFHGLFRIDGEFDGRRVDLELDLTIIAHKVNGRWVIRMFKYR”, the protease stability score turned out to be 1.63. For the sequence “DESEESSKEAWRLLLEMWKTGDEDEYSRMIDPNVRIEIGDKHFHGMEHASKRLQTFLKKLGFKHFRMILRDKDSQGNKIEIDLQIDIHQGDYHIHRRVTLILVKVDGKWSVESHHVI”, the protease stability score was 1.68. In the case of “DESEETAVRMFKHWIRMIETGDEDSLEELADPNVRLEVNGQEVHGRELFLRFFLEMRIKRVRLRHIETQGEKLIIHGELDGEINGRRQETRVIIIVRKVDGKWIIKSIRIE” it was 2.76; in that of “DESEHAAKHVSELFRELVDTGDEKFHEEFADPNVRLDYGDKHYHGREIQLRIFREWRIHHIEDKDVEVQGDKIFVDGRLDGTVDGRRQHYKIILIWRKVNGRWLSTQIRFH”, 1.59; in that of “DESEKDSHMASLHIIELIETGDWRELRELLDPRTRLHIGDKDIHGREEALRNIIRVWHHMRIHRVHIRSIRLQGDYVRVEFEVDGTIDGKHHRIEVEFVAQKIDGRWHLKSEIYH”, 1.12.

“DESEKHAEEFLRLLEESLLTGNWKFISELLDPRARTDYNGRDLHGRETMERWVKDFVRHIRIDHINNKTIDVQGDKVIIIGEVDGTINGRRERLEVHIFFLKVNGRWYLESTEFR” yielded a protease stability score of 1.27. In the case of “DESEKIMEDATKEHVKSFETGDFHTLLRQLDPHVRNNVNGVELHGREDVIRVLRELMERFPNVRVHIERIEVIGDKVNIKVNWNFNGVIVDVNIIAAKINGRWVNREMEVR” it was 0.966.

“DESEKLEELIHERLRHLIETGDEDKLAKMADPNVRNRVGDFVHHGRERSHELLKWIFDHLGIDHLHIKHSSVIDGVVHFEIELRINGRTIRLHDHWFFINGRLDEISIHWE” yielded a protease stability score of 0.93.

In the case of “DESEKLVERLTEDFRKAFETGDEKRLYNLMDPNVRLDINGVEIIGRELISKDLAHDLRRFKNVKMEFRLREIRVIGNFAHIDGRDIINVDGVEKYHESNYIVHKIDGRWHIKEIIIH”, the protease stability score was 1.52. To “DESEKMFKEIWRLLIESHRTGDEDSLERLADPHARMDFNGVEHHGRRELVRILSEHYKRVDHIHLIIRDMDVQGNKVTMRGELVLEFNGRRQTHDVTIILSKVDGVWYLHSIIVR” belongs 1.53; to “DESEKSAFRFFEEMTKVLSTGDEETFLKMLDPNTRLEVGDKERHGREDFIRLMRHLWEVLGADHVHIHVKDIKVVNGRADIDTDLIIYVNGKTIHRDTQIIVLKIDGRWVLTSMEVE”, 2.02. “DESEKYLKDAVEILIRVIRTGDEHTMKELLDPNVRLHAENHESHGRELLEWWTRRIDHVNDSKIEDMRTVGDYVELDMRLHTVFNGQTIDIKTTFIIIKVNGKWQLRSVHIH”: the protease stability score came to 1.26. In the case of “DESERDFRRALEIMHKVVETGNWEEAKRMFDPHVLLDVNGVLIHGREVIIKYVERIDHIRFHHDLKRIETQGDKIYADVHEDLDISINGKTIHIRTRVHIISQKYDGRWLNTEHKVE”, the protease stability score was found to be 0.548.

“DESERDMETFVRITMDELVTGNEESIEEMLDPNVRLEVNGRQFHGREDATRIISEWIKILGINHRRLEEIRFVDGRAEVIVEIRVGDKRSELILISLKVNGQWRMERFEIRNE” registered a protease stability score of 2.09. “DESERIILHIANEFLHLYATGDEDRLRELADPHVRLDVDGQDVHGRELTQKWWKRFVEEIRIRDLHLKDYYIIGEKYHIEGHTRLHIGDKHVETEIRIHIVVVNGKIKSESFHLR” returned a protease stability score of 0.541. Take “DESERMVLELARLFLEDLLTGNEDLMSHLADPHAKNDINGVDLHGMEVISKHLSELRLRVLDITEERVQGDKVRIKVEVVIQYGDKWRETEVDLELYIVNGRLKSQIWTIR”: the protease stability score turned out to be 1.08. In the case of “DESHEHIRFWAEIYIRIFETGDWDEMSRLLDPHYRLIQGDKHIVGRERALDHIDKEIKELRIHHIHIKDVKTQGDYVRIDGHVNYNVGDKILRFDFHIKLLVVDGKIKHSEERVR”, the protease stability score was determined as 1.28. In the case of “DESHELWRRNLELILQSRHTGDEFLTKELFDPRMRSNVNGVELHGMEEMLKFVSEIRIHVEHFRLHRIETQGDKIHIRAHEVINIEIGDYHVRLDTWVEMHDVKYNGRWFNTEVHIR” it was 0.979; in that of “DESHESLHKMLKVRYEALHTGDESMLNELLDPDARFNVDGRIHHGRERAVRYNERIPNLTTRDLKVHDWKVIGDKIHIDGRLEGHWNGKHHIINEEIIVQKINGKWLIEEVIVR”, 0.109.

“DESHQLMLELLEELFHLLLTGNEETILRLADPNTRLQINGQETHGRESARHYWQRFLEHWRLKDYRIRSLYSQGDKAIIHTEVVLHYNGRDFRVTTEIRLWVFDGKIHEIIIIIN” gave a protease stability score of 1.53. In the case of “DESHRESKLANELLKLALHTGDEDLLRELLDPRMRLEIGDKEFIGRDIMVQAMHEFYRELGVKHTDLKIKRVEIQGNKVINEGILWFHVGDKEHWVSTEFQSVKVNGRWLLQVFSIK” it was 1.35. Turning to “DESKDDSRRAVNLVVRTIQTGDWDLLIELLDPNVKIEINGQDLHGRETLFKTWLDEMRKLGVDRVHVELKHIEVQGEKVIVHVDVSVNGRDIKTEIIIHKVDGKWFIKSLHFK”, the protease stability score stood at 1.31. With “DESKEAAELFIKQVERSTKTGDERLFEEFIDPHMRLEIGEFDYHGREFLHITLRDLGMEIRTFIVKDIKVQGDKARIRVEEHIQVNGVEQRRQVKYVIDKFDGRWEIHSVHFD”, the protease stability score stood at 0.392. For the sequence “DESKESARSFEDLLQEVRRTGDERKLVNLIDPHVKININGKIFHGWEDLEREFHRIKNIRFHVERMRVVGDKIDVRGTLHVDGQTVDTEIDVYKIDGRWAIESLRIG”, the protease stability score was 1.43.

“DESKEVSEDALRIMIELIKTGDEHLLQRYIDPDVRVDVNGRHTHGWHWVVRQIFEEIKRVDHMRIHLDSERVFNGRVHLDVTIHVHINGVEIDIKITLTFHKFDGRWLFHHIKHK” showed a protease stability score of 0.195. Regarding “DESKRDVKMFHEIFLRAQSTGDEDELSHLADPNVRIHQGEFHNIGMEEFVKHIREMRVHVRDSHIERVEIQGDKLIVEVRLHMEIRYNGQRTERDVNLHLIIIKINGRWILHSIHIE”, the protease stability score is 1.02. Regarding “DESMTEAKQILETLNKSLNTGDERLDKELFDPRAKLEFDGREIHGRELILTWLSEWRIEIKDFRIEDIEFQGNKVKMHTRIDMTVDFNGRRIKIDTTMHHDVIKVNGRWLIQRQIIP”, the protease stability score was 1.12.
